Measurements published in US7026125, “Heterodimers of retinoid X receptors (RXRS) and other steroid hormone receptors” (Ligand Pharmaceuticals).

Legend:
[1] = biological target: T1, Flag-TRα (UniProt P10827-2 P10827-2:1-410); assay: EMSA; supershifted by anti-Flag; conditions: tags: N-terminal Flag; label: 32P
T1 sequence: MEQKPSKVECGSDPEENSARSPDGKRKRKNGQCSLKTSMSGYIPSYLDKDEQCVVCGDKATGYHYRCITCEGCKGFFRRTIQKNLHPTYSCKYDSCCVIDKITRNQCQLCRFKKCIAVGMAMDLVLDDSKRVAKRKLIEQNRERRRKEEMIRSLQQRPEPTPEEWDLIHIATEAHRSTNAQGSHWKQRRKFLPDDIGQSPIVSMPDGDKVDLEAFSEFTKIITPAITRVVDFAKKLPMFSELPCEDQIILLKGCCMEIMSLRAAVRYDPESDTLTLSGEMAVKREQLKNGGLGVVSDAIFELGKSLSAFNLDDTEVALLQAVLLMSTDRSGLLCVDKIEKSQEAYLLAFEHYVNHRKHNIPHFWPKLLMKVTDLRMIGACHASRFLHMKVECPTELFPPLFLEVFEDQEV
Method: (b) Effect of anti-Flag-TRα antibody on binding of the slow migrating complex. In vitro synthesized Flag-TRα (F-TRα) protein was incubated with in vitro synthesized RXRα protein in the presence or absence of anti-Flag antibody. The effect of antibody on DNA binding of the slow migrating complex was analyzed as described in FIG. 2a. For control, the receptor mixture was also incubated with preimmune serum (NI). The effect of anti-Flag antibody on DNA binding of Flag-RXRα, RXRα, Flag-TRα, and TRα was also analyzed. For comparison, anti-Flag antibody/Flag-RXRα-TRα interaction was run on the same gel (lanes 7–10).
In vitro translated receptor protein (1 to 5 μl depending on the translation efficiency) was incubated with the ^32P-labeled oligonucleotides in a 20-μl reaction mixture containing 10 mM hepes buffer, pH 7.9, 50 mM KCl, 1 mM DTT, 2.5 mM MgCl, 10% glycerol, and 1 μg of poly(dI-dC) at 25° C. for 20 minutes. In general, relative low receptor concentration was used to obtain the clear effect of heterodimer formation. The reaction mixture was then loaded on a 5% nondenaturing ployacrylamide gel containing 0.5×TBE (1×TBE=0.089 M Tris-borate, 0.089 M boric acid, and 0.002 M EDTA). […]

[2] = biological target: Flag-RARγ/RXRα heterodimer (UniProt P13631;P19793 P13631:1-454,P19793:1-462); assay: EMSA; inhibited by anti-Flag; conditions: tags: N-terminal Flag on RARγ; label: 32P
Flag-RARγ/RXRα heterodimer, sequence (P13631 whole entry, chain 1 of 2): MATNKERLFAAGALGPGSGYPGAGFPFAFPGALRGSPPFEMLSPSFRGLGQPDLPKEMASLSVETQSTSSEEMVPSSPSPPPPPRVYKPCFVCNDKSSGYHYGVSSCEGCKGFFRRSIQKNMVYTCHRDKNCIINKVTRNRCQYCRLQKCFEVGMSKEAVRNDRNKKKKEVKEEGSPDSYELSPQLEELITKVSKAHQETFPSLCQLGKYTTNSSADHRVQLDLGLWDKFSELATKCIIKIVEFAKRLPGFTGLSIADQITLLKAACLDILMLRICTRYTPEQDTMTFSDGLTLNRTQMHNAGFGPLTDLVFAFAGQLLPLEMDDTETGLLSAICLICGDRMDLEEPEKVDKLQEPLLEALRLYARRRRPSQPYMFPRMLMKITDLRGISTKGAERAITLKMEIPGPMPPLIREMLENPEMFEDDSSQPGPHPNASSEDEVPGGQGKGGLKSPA
Flag-RARγ/RXRα heterodimer, sequence (P19793 whole entry, chain 2 of 2): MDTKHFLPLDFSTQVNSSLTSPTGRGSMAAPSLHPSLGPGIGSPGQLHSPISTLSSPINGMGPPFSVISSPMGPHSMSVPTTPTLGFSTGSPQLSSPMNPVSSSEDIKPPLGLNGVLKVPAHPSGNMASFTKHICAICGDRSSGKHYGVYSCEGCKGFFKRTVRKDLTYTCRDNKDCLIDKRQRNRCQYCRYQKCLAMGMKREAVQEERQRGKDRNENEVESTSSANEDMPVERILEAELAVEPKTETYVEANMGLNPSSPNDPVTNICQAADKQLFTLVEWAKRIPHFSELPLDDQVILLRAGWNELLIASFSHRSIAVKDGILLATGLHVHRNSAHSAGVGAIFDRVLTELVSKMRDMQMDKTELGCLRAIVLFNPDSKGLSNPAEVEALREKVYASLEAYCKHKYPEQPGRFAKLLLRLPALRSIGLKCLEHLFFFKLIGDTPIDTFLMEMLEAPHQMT
Method: (§1) In vitro translated receptor protein (1 to 5 μl depending on the translation efficiency) was incubated with the ^32P-labeled oligonucleotides in a 20-μl reaction mixture containing 10 mM hepes buffer, pH 7.9, 50 mM KCl, 1 mM DTT, 2.5 mM MgCl, 10% glycerol, and 1 μg of poly(dI-dC) at 25° C. for 20 minutes. In general, relative low receptor concentration was used to obtain the clear effect of heterodimer formation. The reaction mixture was then loaded on a 5% nondenaturing ployacrylamide gel containing 0.5×TBE (1×TBE=0.089 M Tris-borate, 0.089 M boric acid, and 0.002 M EDTA). To analyze the effect of RXRα or the nuclear proteins on receptor DNA binding activity, RXRα or the cell extracts were preincubated with receptor protein at room temperature for 10 minutes before performing the DNA binding assay. When antibody was used, 1 μl of the antiserum was incubated with the specific translation products at room temperature for 45 minutes before performing the experiments described above.

[3] = biological target: TRα/RXRαm4 (UniProt P10827-2;P19793 P10827-2:1-410,P19793:61-462, RXRα N-terminal deletion of 61 aa); assay: EMSA; faster migrating than RXRαm3 complex; conditions: label: 32P
TRα/RXRαm4, sequence (P19793 62-462, stated change not applied, one chain of several): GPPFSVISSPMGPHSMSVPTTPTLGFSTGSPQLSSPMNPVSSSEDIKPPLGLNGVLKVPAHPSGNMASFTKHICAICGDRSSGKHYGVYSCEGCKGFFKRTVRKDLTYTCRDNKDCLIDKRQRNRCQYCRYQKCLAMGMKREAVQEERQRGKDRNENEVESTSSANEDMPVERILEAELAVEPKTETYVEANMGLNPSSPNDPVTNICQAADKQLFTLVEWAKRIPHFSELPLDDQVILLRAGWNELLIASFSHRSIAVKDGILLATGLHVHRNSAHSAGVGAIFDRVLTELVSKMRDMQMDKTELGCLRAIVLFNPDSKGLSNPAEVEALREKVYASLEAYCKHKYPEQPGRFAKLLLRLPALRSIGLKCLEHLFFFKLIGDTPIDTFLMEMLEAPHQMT
Method: as §1, with “In” for “In vitro translated receptor protein (1 to 5 μl depending on the translation efficiency) was incubated with the ^32P-labeled oligonucleotides in a 20-μl reaction mixture containing 10 mM hepes buffer, pH 7.9, 50 mM KCl, 1 mM DTT, 2.5 mM MgCl, 10% glycerol, and 1 μg of poly(dI-dC) at 25° C. for 20 minutes. In”

[4] = biological target: Flag-RXRα/TRα heterodimer (UniProt P19793;P10827-2 P19793:1-462,P10827-2:1-410); assay: EMSA; strongly reduced by anti-Flag; conditions: tags: N-terminal Flag on RXRα; label: 32P
Flag-RXRα/TRα heterodimer, sequence (P19793 whole entry, one chain of several): as the sequence (P19793 whole entry, chain 2 of 2) above
Method: As a control, receptor mixtures were also incubated with preimmune serum (NI).
as §1

Measured: binding result

B1: palindromic TRE (dsDNA)
DNA 1: GATCTCAGGTCATGACCTGAGATC
DNA 2: GATCTCAGGTCATGACCTGAGATC
binds: all assays above
